Like-named read-outs stand apart in the source and are kept apart here.
Columns and labels:
[1] = target: T1, GPR133 (ADGRD1) C-terminal fragment (CTF) with C-terminal TwinStrep tag, from C-terminally tagged wild-type … (human); experiment: pull-down
T1 chain: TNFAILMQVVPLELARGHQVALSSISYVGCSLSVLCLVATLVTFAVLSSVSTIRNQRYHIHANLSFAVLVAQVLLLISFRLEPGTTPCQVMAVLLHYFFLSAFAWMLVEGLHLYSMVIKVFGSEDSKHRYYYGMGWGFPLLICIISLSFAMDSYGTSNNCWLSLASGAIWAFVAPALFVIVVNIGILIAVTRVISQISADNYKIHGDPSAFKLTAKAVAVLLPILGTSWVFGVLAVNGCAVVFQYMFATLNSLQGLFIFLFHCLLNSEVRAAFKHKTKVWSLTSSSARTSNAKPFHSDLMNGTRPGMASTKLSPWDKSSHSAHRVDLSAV

[2] = target: T1, GPR133 (ADGRD1) C-terminal fragment …; experiment: pull-down

B1: GPR133 (ADGRD1) N-terminal fragment (NTF), from C-terminally TwinStrep-tagged wild-type GPR133 (domain or fragment, human)
chain: VYSRSQDHPGFQVLASASHYWPLENVDGIHELQDTTGDIVEGKVNKGIYLKEEKGVTLLYYGRYNSSCISKPEQCGPEGVTFSFFWKTQGEQSRPIPSAYGGQVISNGFKVCSSGGRGSVELYTRDNSMTWEASFSPPGPYWTHVLFTWKSKEGLKVYVNGTLSTSDPSGKVSRDYGESNVNLVIGSEQDQAKCYENGAFDEFIIWERALTPDEIAMYFTAAIGKHALLSSTLPSLFMTSTASPVMPTDAYHPIITNLTEERKTFQSPGVILSYLQNVSLSLPSKSLSEQTALNLTKTFLKAVGEILLLPGWIALSEDSAVVLSLIDTIDTVMGHVSSNLHGSTPQVTVEGSSAMAEFSVAKILPKTVNSSHYRFPAHGQSFIQIPHEAFHRHAWSTVVGLLYHSMHYYLNNIWPAHTKIAEAMHHQDCLLFATSHLISLEVSPPPTLSQNLSGSPLITVHLKHRLTRKQHSEATNSSNRVFVYCAFLDFSSGEGVWSNHGCALTRGNLTYSVCRCTHL
modifications: glycosylated (nine N-linked glycosylation sites predicted within the NTF; positions not given)
[1]
  NTF/CTF ratio in the elution (densitometry): 1
[2]
  NTF/CTF ratio in the elution (densitometry): 0.17
